First the molecules themselves.
B1: Histone H1t, residues 44 to 112; numbered along this chain, P22492 (parent)
chain: VSKLITEALSVSQERVGMSLVALKKALAAAGYDVEKNNSRIKLSLKSLVNKGILVQTRGTGASGSFKLS

± gives the uncertainty stated by the source.

This data set covers variants of B1. Put plainly: abundance fitness (aPCA) (normalised: wild type 0, dead -1); higher = more abundant; growth selection in yeast, the domain comes from the species named. The following applies: Homo sapiens.
Regarding VSKLITEALSVSQERVGMSLVALKKALAAAGYDVEKNNSRWKLSLKSLVNKGILVQTRGTGASGSFKLS [I41W], the abundance fitness was -0.113 ± 0.043.
For the variant VSKLITEALSVSQERVGMSLVALKKALAAAGYDVEKNNSRGKLSLKSLVNKGILVQTRGTGASGSFKLS [I41G], the abundance fitness was -0.405 ± 0.041.
With VSKLITEALSVSQERVGMSLVALKKALAAAGYDVEKNNSREKLSLKSLVNKGILVQTRGTGASGSFKLS [I41E], the abundance fitness was -0.813 ± 0.11.
With VSKLITEALSVSQERVGMSLVALKKALAAAGYDVEKNNSRDKLSLKSLVNKGILVQTRGTGASGSFKLS [I41D], the abundance fitness was -0.742 ± 0.13.
Consider VSKLITEALSVSQERVGMSLVALKKALAAAGYDVEKNNSRHKLSLKSLVNKGILVQTRGTGASGSFKLS [I41H], for which the abundance fitness was -0.444 ± 0.049.
As for VSKLITEALSVSQERVGMSLVALKKALAAAGYDVEKNNSRRKLSLKSLVNKGILVQTRGTGASGSFKLS [I41R], the abundance fitness was -0.514 ± 0.034.
In the case of VSKLITEALSVSQERVGMSLVALKKALAAAGYDVEKNNSRFKLSLKSLVNKGILVQTRGTGASGSFKLS [I41F], the abundance fitness was -0.055 ± 0.031.
VSKLITEALSVSQERVGMSLVALKKALAAAGYDVEKNNSRVKLSLKSLVNKGILVQTRGTGASGSFKLS [I41V]: the abundance fitness is -0.308 ± 0.041.
Next, VSKLITEALSVSQERVGMSLVALKKALAAAGYDVEKNNSRPKLSLKSLVNKGILVQTRGTGASGSFKLS [I41P]: -0.394 ± 0.035; VSKLITEALSVSQERVGMSLVALKKALAAAGYDVEKNNSRCKLSLKSLVNKGILVQTRGTGASGSFKLS [I41C]: -0.439 ± 0.054; VSKLITEALSVSQERVGMSLVALKKALAAAGYDVEKNNSRQKLSLKSLVNKGILVQTRGTGASGSFKLS [I41Q]: -0.556 ± 0.049.
For VSKLITEALSVSQERVGMSLVALKKALAAAGYDVEKNNSRMKLSLKSLVNKGILVQTRGTGASGSFKLS [I41M], the abundance fitness is -0.191 ± 0.031.
For the variant VSKLITEALSVSQERVGMSLVALKKALAAAGYDVEKNNSRYKLSLKSLVNKGILVQTRGTGASGSFKLS [I41Y], the abundance fitness is -0.43 ± 0.057.
As for VSKLITEALSVSQERVGMSLVALKKALAAAGYDVEKNNSRTKLSLKSLVNKGILVQTRGTGASGSFKLS [I41T], the abundance fitness is -0.56 ± 0.039.
VSKLITEALSVSQERVGMSLVALKKALAAAGYDVEKNNSRNKLSLKSLVNKGILVQTRGTGASGSFKLS [I41N]: the abundance fitness was -0.542 ± 0.052.
VSKLITEALSVSQERVGMSLVALKKALAAAGYDVEKNNSRLKLSLKSLVNKGILVQTRGTGASGSFKLS [I41L]: the abundance fitness is -0.124 ± 0.026.
With VSKLITEALSVSQERVGMSLVALKKALAAAGYDVEKNNSGIKLSLKSLVNKGILVQTRGTGASGSFKLS [R40G], the abundance fitness was -0.372 ± 0.037.
With VSKLITEALSVSQERVGMSLVALKKALAAAGYDVEKNNSAIKLSLKSLVNKGILVQTRGTGASGSFKLS [R40A] the figure was 0.091 ± 0.035; with VSKLITEALSVSQERVGMSLVALKKALAAAGYDVEKNNSLIKLSLKSLVNKGILVQTRGTGASGSFKLS [R40L], -0.097 ± 0.12; with VSKLITEALSVSQERVGMSLVALKKALAAAGYDVEKNNSKIKLSLKSLVNKGILVQTRGTGASGSFKLS [R40K], 0.128 ± 0.031.
For the variant VSKLITEALSVSQERVGMSLVALKKALAAAGYDVEKNNSMIKLSLKSLVNKGILVQTRGTGASGSFKLS [R40M], the abundance fitness is -0.215 ± 0.18.
With VSKLITEALSVSQERVGMSLVALKKALAAAGYDVEKNNSPIKLSLKSLVNKGILVQTRGTGASGSFKLS [R40P] the figure was -0.444 ± 0.03; with VSKLITEALSVSQERVGMSLVALKKALAAAGYDVEKNNSNIKLSLKSLVNKGILVQTRGTGASGSFKLS [R40N], -0.165 ± 0.12; with VSKLITEALSVSQERVGMSLVALKKALAAAGYDVEKNNSSIKLSLKSLVNKGILVQTRGTGASGSFKLS [R40S], -0.404 ± 0.12.
For the variant VSKLITEALSVSQERVGMSLVALKKALAAAGYDVEKNNSEIKLSLKSLVNKGILVQTRGTGASGSFKLS [R40E], the abundance fitness was -0.036 ± 0.056.
Take VSKLITEALSVSQERVGMSLVALKKALAAAGYDVEKNNSVIKLSLKSLVNKGILVQTRGTGASGSFKLS [R40V]: the abundance fitness is -0.396 ± 0.21.
With VSKLITEALSVSQERVGMSLVALKKALAAAGYDVEKNNSTIKLSLKSLVNKGILVQTRGTGASGSFKLS [R40T], the abundance fitness was -0.085 ± 0.03.
With VSKLITEALSVSQERVGMSLVALKKALAAAGYDVEKNNSHIKLSLKSLVNKGILVQTRGTGASGSFKLS [R40H] the figure was -0.094 ± 0.072; with VSKLITEALSVSQERVGMSLVALKKALAAAGYDVEKNNSQIKLSLKSLVNKGILVQTRGTGASGSFKLS [R40Q], 0.024 ± 0.028; with VSKLITEALSVSQERVGMSLVALKKALAAAGYDVEKNQSRIKLSLKSLVNKGILVQTRGTGASGSFKLS [N38Q], -0.058 ± 0.1.
With VSKLITEALSVSQERVGMSLVALKKALAAAGYDVEKNMSRIKLSLKSLVNKGILVQTRGTGASGSFKLS [N38M] the figure was 0.084 ± 0.16; with VSKLITEALSVSQERVGMSLVALKKALAAAGYDVEKNDSRIKLSLKSLVNKGILVQTRGTGASGSFKLS [N38D], -0.632 ± 0.23.
For VSKLITEALSVSQERVGMSLVALKKALAAAGYDVEKNRSRIKLSLKSLVNKGILVQTRGTGASGSFKLS [N38R], the abundance fitness is -0.393 ± 0.28.
Next, VSKLITEALSVSQERVGMSLVALKKALAAAGYDVEKNESRIKLSLKSLVNKGILVQTRGTGASGSFKLS [N38E]: -0.061 ± 0.14; VSKLITEALSVSQERVGMSLVALKKALAAAGYDVEKNGSRIKLSLKSLVNKGILVQTRGTGASGSFKLS [N38G]: -0.122 ± 0.15; VSKLITEALSVSQERVGMSLVALKKALAAAGYDVEKNHSRIKLSLKSLVNKGILVQTRGTGASGSFKLS [N38H]: -0.405 ± 0.39.
Turning to VSKLITEALSVSQERVGMSLVALKKALAAAGYDVEKNPSRIKLSLKSLVNKGILVQTRGTGASGSFKLS [N38P], the abundance fitness is -0.168 ± 0.069.
Take VSKLITEALSVSQERVGMSLVALKKALAAAGYDVEKNLSRIKLSLKSLVNKGILVQTRGTGASGSFKLS [N38L]: the abundance fitness came out at 0.048 ± 0.066.
VSKLITEALSVSQERVGMSLVALKKALAAAGYDVEKNVSRIKLSLKSLVNKGILVQTRGTGASGSFKLS [N38V]: the abundance fitness was 0.047 ± 0.085.

The values above are taken from the Human Domainome abundance scans (Beltran et al. 2025).
